PMC5318860

Biological target: SAVSBPM18-L-ABD(KC) fusion (not stated | Lumbricus terrestris)
Experiment: affinity chromatography; 1-ml columns with about 1 mg of SAVSBPM18-L-ABD(KC) on Sepharose 6B-CL or 1,025 μg of SAVSBPM18 on Affi-Gel 15; 1 mg of biotinylated BSA loaded, above the binding capacity; elution with 10 mM biotin; fractions on SDS-PAGE

amount bound per ml of matrix at saturation (μg per ml of matrix): 730
Substance: chemically biotinylated bovine serum albumin (BSA) (from UniProt P02769 25-607) (natural protein)
